Data published in article PMC3884217.

Biological target: Nud1 pT78 peptide (budding yeast)

Kd: 2400 nM
B1: Mob1 (construct not stated for this experiment) (natural protein)
chain: MSFLQNFHISPGQTIRSTRGFKWNTANAANNAGSVSPTKATPHNNTINGNNNNANTINNRADFTNNPVNGYNESDHGRMSPVLTTPKRHAPPPEQLQNVTDFNYTPSHQKPFLQPQAGTTVTTHQDIKQIVEMTLGSEGVLNQAVKLPRGEDENEWLAVHCVDFYNQINMLYGSITEFCSPQTCPRMIATNEYEYLWAFQKGQPPVSVSAPKYVECLMRWCQDQFDDESLFPSKVTGTFPEGFIQRVIQPILRRLFRVYAHIYCHHFNEILELNLQTVLNTSFRHFCLFAQEFELLRPADFGPLLELVMELRDR
